The source of these data is article PMC10493163.

The assay concerns the target angiotensin-converting enzyme 2 (ACE2), noncovalently adsorbed on (GT)6-SWCNTs (human) (UniProt Q9BYF1). Description: other fluorescence titration.
Sequence of UniProt Q9BYF1 (Q9BYF1 18-805): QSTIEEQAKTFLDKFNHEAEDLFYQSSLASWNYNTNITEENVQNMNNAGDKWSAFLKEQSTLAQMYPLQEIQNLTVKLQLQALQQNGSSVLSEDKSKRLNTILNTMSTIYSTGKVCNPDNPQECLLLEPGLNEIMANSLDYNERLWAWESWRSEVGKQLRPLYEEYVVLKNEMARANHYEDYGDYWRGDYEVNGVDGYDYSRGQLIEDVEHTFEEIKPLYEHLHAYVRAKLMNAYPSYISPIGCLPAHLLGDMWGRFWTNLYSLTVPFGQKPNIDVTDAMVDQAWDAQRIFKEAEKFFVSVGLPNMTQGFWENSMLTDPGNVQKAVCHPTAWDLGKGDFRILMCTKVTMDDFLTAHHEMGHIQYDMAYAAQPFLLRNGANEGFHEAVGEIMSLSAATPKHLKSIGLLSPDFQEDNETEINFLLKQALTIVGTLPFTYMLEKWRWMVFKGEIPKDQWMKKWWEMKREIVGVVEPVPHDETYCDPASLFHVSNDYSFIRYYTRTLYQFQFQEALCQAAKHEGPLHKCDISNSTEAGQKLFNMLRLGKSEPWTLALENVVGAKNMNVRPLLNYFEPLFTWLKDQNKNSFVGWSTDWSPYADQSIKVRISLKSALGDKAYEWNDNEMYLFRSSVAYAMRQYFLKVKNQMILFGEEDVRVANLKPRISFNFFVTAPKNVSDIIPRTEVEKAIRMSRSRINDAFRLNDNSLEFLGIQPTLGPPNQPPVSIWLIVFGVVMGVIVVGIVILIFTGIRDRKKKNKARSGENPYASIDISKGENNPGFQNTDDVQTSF

On to “SARS-CoV-1 spike protein receptor-binding domain (domain or fragment)”, for which the dF/F0 of the 1130 nm SWCNT emission peak after 90 min, 10 mg/L is 88.4%.
